Measured values: US20220348609A1 (University of Washington, published 2022)

B1: BP1 (av6_3_E13T) (designed binder)
chain: MAVVRFVFRGDLATLMLRAVKDHLKKEGPHWNITSTNNGAELVVRGIHESDAKRIAKWVEKRFPGVHTETQQD
notes: also called BPI; not shown: C-terminal His tag (pET29b, NdeI/XhoI)
B2: BP2 (av6_3_A39KG64R) (designed binder)
chain: MAVVRFVFRGDLAELMLRAVKDHLKKEGPHWNITSTNNGKELVVRGIHESDAKRIAKWVEKRFPRVHTETQQD
notes: not shown: C-terminal His tag (pET29b, NdeI/XhoI)
B3: BP2_disulf with knockout mutation of the RGD to KGE (designed binder)
chain: MTKCVVRFVFKGELAELMLRAVKDHLKKEGPHWNITSTNNGKELVVRGIHESDAKRIAKWVEKRFPRVHTETQCD
notes: if the listing entry starts with Met they are 11 and 13; also called KGE knockout of BP2_disulf

Columns and labels:
[1] = target: T1, human αvβ6 integrin, soluble protein (biotinylated for yeast display; in solution for BLI) (human, UniProt P06756 31-992; P18564 22-707, limits assumed, biotinylated in the yeast display experiments (site not stated)); assay: BLI titration of purified protein against αvβ6 (FIG. 2f,g); BLI, purified BP1 against αvβ6
T1 construct: also called avb6; alpha(v) beta (6) integrin
T1 sequence (P06756 31-992 limits assumed, chain 1 of 2): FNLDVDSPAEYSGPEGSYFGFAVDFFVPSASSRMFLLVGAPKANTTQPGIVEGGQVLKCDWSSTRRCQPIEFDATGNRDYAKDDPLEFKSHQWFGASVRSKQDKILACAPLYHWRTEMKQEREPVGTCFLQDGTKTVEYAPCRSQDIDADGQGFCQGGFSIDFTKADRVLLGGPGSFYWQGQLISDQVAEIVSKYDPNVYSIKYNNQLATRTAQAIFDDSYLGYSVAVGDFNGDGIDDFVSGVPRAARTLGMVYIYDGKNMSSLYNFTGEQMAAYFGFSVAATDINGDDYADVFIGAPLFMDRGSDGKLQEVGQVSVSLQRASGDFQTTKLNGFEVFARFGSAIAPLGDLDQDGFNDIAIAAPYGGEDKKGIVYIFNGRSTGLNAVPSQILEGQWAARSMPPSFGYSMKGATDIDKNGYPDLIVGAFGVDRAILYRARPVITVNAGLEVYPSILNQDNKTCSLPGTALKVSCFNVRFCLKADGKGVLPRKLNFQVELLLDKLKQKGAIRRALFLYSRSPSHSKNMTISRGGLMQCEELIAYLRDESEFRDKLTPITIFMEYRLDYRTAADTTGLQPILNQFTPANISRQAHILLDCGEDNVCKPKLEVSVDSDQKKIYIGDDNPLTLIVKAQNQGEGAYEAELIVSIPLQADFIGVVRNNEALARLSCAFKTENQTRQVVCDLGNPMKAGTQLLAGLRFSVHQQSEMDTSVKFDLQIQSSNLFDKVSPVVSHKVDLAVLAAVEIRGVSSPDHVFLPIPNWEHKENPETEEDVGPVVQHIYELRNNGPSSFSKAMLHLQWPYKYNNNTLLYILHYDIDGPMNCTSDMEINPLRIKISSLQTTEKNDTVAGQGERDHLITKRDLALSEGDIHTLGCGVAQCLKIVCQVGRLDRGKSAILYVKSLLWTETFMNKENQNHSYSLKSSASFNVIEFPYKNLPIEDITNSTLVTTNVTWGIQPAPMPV
T1 sequence (P18564 22-707 limits assumed, chain 2 of 2): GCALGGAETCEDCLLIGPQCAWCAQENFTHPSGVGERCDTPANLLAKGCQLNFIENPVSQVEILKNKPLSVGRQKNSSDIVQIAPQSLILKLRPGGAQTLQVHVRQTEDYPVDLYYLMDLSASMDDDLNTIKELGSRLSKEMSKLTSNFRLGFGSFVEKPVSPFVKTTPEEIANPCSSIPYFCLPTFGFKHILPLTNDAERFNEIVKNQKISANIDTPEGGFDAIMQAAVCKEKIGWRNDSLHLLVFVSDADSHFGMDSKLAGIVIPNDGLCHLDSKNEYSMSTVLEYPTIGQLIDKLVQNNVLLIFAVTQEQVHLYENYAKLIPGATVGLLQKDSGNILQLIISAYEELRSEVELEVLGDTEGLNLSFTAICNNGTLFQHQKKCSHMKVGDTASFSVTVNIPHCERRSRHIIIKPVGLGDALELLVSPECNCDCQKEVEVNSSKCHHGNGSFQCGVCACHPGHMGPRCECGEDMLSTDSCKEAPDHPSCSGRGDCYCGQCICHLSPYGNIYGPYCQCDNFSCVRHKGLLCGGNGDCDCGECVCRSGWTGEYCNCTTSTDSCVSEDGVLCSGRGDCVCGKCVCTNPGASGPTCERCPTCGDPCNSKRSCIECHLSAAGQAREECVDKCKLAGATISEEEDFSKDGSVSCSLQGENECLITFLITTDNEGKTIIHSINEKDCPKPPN
Protocol: (§1) Data was collected on an Octet™ RED96 (Forte Bio) and processed using the instrument's software. His Tagged protein binders were immobilized on Ni-NTA octet sensors. The tips are then dipped into wells containing different concentrations of αᵥβ₆. Association and dissociation steps were recorded for 900 s and 1200 s respectively. An empty sensor with no loaded binding protein was included to discard any non-specific binding of αᵥβ₆ to the octet tip.

[2] = target: T1, human αvβ6 integrin, soluble protein …; assay: BLI (Octet RED96), His-tagged binder on Ni-NTA sensor, αvβ6 in solution
Protocol: as §1

[3] = target: T2, human αvβ6 integrin on cells (A431 carcinoma cells; K562 cells stably transfected with αvβ6) (human, UniProt P06756 31-1048; P18564 22-788); assay: cell-based or functional assay
T2 sequence (P06756 31-1048, chain 1 of 2): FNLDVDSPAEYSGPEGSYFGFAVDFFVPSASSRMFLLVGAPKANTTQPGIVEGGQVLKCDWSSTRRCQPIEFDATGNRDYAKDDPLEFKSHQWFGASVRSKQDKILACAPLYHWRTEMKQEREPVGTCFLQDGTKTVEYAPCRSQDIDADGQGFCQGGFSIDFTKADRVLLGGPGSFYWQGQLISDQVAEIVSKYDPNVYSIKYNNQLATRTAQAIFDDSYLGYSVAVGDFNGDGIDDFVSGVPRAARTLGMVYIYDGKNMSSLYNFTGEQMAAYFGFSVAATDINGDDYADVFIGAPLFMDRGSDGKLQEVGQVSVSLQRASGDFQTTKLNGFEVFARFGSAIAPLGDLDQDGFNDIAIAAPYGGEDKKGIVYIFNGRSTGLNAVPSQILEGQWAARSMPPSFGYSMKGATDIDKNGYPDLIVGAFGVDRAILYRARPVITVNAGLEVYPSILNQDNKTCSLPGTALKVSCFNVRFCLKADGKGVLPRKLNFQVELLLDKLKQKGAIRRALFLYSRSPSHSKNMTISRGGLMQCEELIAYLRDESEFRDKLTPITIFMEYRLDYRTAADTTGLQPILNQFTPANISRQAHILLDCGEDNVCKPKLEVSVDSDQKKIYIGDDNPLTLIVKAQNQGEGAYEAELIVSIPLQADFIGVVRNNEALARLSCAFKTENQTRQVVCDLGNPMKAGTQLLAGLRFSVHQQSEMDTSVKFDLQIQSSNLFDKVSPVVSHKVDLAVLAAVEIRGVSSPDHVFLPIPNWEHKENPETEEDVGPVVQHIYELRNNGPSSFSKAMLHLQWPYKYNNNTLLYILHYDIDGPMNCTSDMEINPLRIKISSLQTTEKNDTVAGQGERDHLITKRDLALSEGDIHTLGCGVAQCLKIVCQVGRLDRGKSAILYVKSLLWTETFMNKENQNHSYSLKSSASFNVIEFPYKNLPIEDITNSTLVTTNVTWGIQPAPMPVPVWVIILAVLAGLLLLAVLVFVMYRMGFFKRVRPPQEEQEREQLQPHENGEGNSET
T2 sequence (P18564 22-788, chain 2 of 2): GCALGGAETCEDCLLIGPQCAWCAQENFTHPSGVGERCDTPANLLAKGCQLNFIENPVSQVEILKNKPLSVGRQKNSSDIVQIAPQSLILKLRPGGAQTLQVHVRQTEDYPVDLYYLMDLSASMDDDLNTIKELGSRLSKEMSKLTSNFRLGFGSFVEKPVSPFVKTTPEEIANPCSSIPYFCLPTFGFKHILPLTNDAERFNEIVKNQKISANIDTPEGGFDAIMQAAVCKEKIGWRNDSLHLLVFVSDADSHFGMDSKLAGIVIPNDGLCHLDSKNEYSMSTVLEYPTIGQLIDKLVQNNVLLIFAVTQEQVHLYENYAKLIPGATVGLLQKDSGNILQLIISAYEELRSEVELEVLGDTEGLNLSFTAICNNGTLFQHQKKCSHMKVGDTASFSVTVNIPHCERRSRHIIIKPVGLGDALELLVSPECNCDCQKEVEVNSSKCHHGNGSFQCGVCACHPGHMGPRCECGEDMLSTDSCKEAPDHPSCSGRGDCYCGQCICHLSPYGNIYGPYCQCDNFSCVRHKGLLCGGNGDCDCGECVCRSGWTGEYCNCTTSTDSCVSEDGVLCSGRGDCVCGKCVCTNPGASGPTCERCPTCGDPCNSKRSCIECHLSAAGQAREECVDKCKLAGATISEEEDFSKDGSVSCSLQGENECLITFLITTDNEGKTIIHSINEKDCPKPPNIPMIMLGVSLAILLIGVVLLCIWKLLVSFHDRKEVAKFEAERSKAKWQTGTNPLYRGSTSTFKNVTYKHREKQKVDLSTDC

[4] = target: T3, human αvβ8 integrin on cells (K562 cells stably transfected with αvβ8; HeLa b8 cells in the TMLC assay) (human, UniProt P06756 31-1048; P26012 43-769); assay: cell surface titration on K562 cells stably transfected with αvβ8; K562 cells with αvβ8; BP1 lacking A39K
T3 construct: whole, on cells; also called avb8; alpha(v) beta (8) integrin

[5] = target: T4, α5β1 integrin on stably transfected K562 cells (UniProt P08648 42-1049; P05556 21-798, limits assumed); assay: cell surface binding on stably transfected K562 cells
T4 construct: whole, on cells; also called a5b1; alpha 5 beta 1

[6] = target: T5, αvβ5 integrin on stably transfected K562 cells (UniProt P06756 31-1048; P18084 24-799, limits assumed); assay: as above
T5 construct: whole, on cells; also called avb5; alpha(v) beta (5) integrin
T5 sequence (P06756 31-1048 limits assumed, chain 1 of 2): as the sequence (P06756 31-1048, chain 1 of 2) above
T5 sequence (P18084 24-799 limits assumed, chain 2 of 2): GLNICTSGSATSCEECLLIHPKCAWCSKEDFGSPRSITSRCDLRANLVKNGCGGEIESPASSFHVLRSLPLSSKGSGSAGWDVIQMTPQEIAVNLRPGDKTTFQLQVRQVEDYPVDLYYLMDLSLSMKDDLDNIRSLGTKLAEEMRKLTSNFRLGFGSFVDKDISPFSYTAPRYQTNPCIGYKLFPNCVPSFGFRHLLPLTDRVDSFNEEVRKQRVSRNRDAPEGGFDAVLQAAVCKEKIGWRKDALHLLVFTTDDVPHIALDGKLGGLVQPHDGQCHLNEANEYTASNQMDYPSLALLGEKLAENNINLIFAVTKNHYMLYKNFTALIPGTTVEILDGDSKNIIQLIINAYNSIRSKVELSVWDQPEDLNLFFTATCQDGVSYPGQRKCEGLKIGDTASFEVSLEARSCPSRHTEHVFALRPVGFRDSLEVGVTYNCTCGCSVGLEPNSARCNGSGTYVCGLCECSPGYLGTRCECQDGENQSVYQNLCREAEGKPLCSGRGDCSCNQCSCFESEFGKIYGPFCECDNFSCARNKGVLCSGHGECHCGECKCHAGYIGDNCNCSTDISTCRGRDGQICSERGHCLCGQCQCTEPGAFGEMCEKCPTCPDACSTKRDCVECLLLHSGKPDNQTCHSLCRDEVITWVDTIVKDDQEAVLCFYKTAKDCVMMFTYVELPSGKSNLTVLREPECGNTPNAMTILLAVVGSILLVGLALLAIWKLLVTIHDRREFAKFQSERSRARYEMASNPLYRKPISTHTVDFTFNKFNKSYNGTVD

[7] = target: T6, α8β1 integrin on stably transfected K562 cells (UniProt P53708 39-1063; P05556 21-798, limits assumed); assay: as above
T6 construct: whole, on cells; also called a8b1; alpha 8 beta 1

[8] = target: T7, αvβ3 integrin on stably transfected K562 cells (UniProt P06756 31-1048; P05106 27-788, limits assumed); assay: as above
T7 construct: whole, on cells; also called avb3; alpha(v) beta (3) integrin

[9] = target: T8, αiibβ3 integrin on stably transfected K562 cells (UniProt P08514 32-1039; P05106 27-788, limits assumed); assay: as above
T8 construct: whole, on cells; also called aiibb3; alpha (iib) beta (3) integrin

[10] = target: T9, αvβ1 integrin on stably transfected K562 cells (UniProt P06756 31-1048; P05556 21-798, limits assumed); assay: as above
T9 construct: whole, on cells; also called avb1; alpha(v) beta (1) integrin
T9 sequence (P06756 31-1048 limits assumed, chain 1 of 2): as the sequence (P06756 31-1048, chain 1 of 2) above
T9 sequence (P05556 21-798 limits assumed, chain 2 of 2): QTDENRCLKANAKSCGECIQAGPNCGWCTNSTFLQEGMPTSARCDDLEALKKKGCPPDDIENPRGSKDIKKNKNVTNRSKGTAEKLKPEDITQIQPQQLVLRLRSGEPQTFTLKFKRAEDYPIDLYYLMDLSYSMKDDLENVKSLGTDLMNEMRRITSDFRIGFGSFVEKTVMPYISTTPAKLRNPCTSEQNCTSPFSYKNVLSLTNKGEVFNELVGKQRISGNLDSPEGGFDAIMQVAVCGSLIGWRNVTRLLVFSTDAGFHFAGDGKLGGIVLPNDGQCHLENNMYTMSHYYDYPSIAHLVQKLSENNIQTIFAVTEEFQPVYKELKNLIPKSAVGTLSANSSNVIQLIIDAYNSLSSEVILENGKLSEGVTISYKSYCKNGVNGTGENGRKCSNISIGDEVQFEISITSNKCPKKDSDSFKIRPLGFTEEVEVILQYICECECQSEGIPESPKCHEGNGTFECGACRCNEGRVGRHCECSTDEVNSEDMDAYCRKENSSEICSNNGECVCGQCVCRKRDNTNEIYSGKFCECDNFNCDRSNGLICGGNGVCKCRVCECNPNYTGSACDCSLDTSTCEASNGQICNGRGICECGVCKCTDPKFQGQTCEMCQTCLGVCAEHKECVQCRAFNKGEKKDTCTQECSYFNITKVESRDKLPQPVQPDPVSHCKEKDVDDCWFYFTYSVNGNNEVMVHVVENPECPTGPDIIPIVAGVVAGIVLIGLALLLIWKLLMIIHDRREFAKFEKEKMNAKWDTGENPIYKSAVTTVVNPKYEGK

[11] = target: T2, human αvβ6 integrin on cells (A431 …); assay: cell surface binding assay on K562 cells stably expressing αvβ6/αvβ8; reference αvβ8
[12] = target: T1, human αvβ6 integrin, soluble protein …; assay: BLI titration of purified protein against αvβ6 (FIG. 2f,g); BLI, purified BP2 against αvβ6
Protocol: as §1

[13] = target: T1, human αvβ6 integrin, soluble protein …; assay: binding assay not named

Row | Binder | Kd [1] | Kd [2] | IC50 of the block of αvβ6 mediated TGF-β activation, TMLC luciferase reporter co-culture assay [3] | Kd [4] | binding result [5] | binding result [6] | binding result [7] | binding result [8] | binding result [9] | binding result [10] | fold specificity towards αvβ6 over αvβ8 [11] | Kd [12] | binding result [13]
1 | B1 | < 1 nM | 0.334 nM | 199 pM | ~7.3 nM | no binding (tested: up to 200 nM) | no binding (tested: up to 200 nM) | no binding (tested: up to 200 nM) | no binding (tested: up to 200 nM) | no binding (tested: up to 200 nM) | no binding (tested: up to 200 nM) | – | – | –
2 | B2 | – | 0.414 nM | 151 pM | – | no binding (tested: up to 200 nM) | no binding (tested: up to 200 nM) | no binding (tested: up to 200 nM) | no binding (tested: up to 200 nM) | no binding (tested: up to 200 nM) | no binding (tested: up to 200 nM) | > 5000 fold | < 1 nM | –
3 | B3 | – | – | – | – | – | – | – | – | – | – | – | – | no binding
